Key:
[1] = molecular target: recombinant MBP (Maltose Binding Protein) alone, negative control (UniProt P0AEX9 27-392 = MBP); experiment: pulldown on amylose-agarose resin, autoradiography
Experimental: (§1) FIG. 8. […] The CAD containing C-terminal 100 amino acids of HIF-2a was in vitro translated in the presence of ³⁵S-methionine. […] The resin mixtures were washed before the pulled down proteins were analysed by SDS-PAGE and autoradiography. Lanes 1-3 show 10% of the input translation mixtures.
(§2) Samples were centrifuged 1500 rpm, 30 secs (room temp) to pellet resin, and the supernatant discarded. Resin was then washed three times with 1 ml of the binding buffer. […] After centrifuging 30 secs/1500 rpm, 30 ul of the supernatant was separated by electrophoresis through a 12.5 % polyacrylamide gel. The gel was dried and exposed to autoradiography.

[2] = molecular target: T1, MBP (maltose binding protein) fused to wild type HIF Asparagine Hydroxylase (HNH) (UniProt Q9NWT6 1-349); experiment: pulldown on amylose-agarose resin, autoradiography
T1 construct: also called MBP-HNH; MBP/FIH-1
Experimental: as §1, §2

T1 sequence (Q9NWT6 whole entry, the tested form may be a part): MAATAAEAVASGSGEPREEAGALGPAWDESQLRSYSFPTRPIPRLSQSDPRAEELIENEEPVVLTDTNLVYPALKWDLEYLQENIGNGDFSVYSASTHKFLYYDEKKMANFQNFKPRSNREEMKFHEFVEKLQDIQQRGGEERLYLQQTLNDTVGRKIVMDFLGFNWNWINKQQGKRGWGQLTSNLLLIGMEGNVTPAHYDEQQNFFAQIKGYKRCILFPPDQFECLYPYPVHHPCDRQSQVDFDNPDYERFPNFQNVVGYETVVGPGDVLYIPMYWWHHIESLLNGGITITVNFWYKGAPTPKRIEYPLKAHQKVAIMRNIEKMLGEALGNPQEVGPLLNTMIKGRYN

B1: C-terminal 100 amino acids of mouse HIF-2a (775-874), wild type, with N-terminal thioredoxin/6-histidine tag (other)
chain: RGLGQPLRHLPPPQPPSTRSSGENAKTGFPPQCYASQFQDYGPPGAQKVSGVASRLLGPSFEPYLLPELTRYDCEVNVPVPGSSTLLQGRDLLRALDQAT
modifications: in vitro translated in the presence of 35S-methionine (radiolabelled Met)
notes: range 775-874; also called HIF-2a CAD; wild type CAD; not shown: N-terminal thioredoxin/6-histidine tag supplied by the pET32 vector
[1]
  binding result: no binding

B2: C-terminal 100 amino acids of mouse HIF-2a (775-874), mutant N851A, with N-terminal thioredoxin/6-histidine tag (other)
chain: RGLGQPLRHLPPPQPPSTRSSGENAKTGFPPQCYASQFQDYGPPGAQKVSGVASRLLGPSFEPYLLPELTRYDCEVAVPVPGSSTLLQGRDLLRALDQAT
modifications: in vitro translated in the presence of 35S-methionine (radiolabelled Met)
notes: range 775-874; also called N851A point mutant CAD; not shown: N-terminal thioredoxin/6-histidine tag supplied by the pET32 vector
[1]
  binding result: no binding

B3: C-terminal 100 amino acids of mouse HIF-2a (775-874), mutant RLL to AAA, with N-terminal thioredoxin/6-histidine tag (other, UniProt P97481 775-874, looked up)
chain: RGLGQPLRHLPPPQPPSTRSSGENAKTGFPPQCYASQFQDYGPPGAQKVSGVASAAAGPSFEPYLLPELTRYDCEVNVPVPGSSTLLQGRDLLRALDQAT
modifications: in vitro translated in the presence of 35S-methionine (radiolabelled Met)
notes: range 775-874; also called RLL to AAA triple mutant CAD; not shown: N-terminal thioredoxin/6-histidine tag supplied by the pET32 vector
[2]
  binding result: no binding
[1]
  binding result: no binding
